Measurements as given in patent US6407222B1, “Cloning and expression of dog gonadotropin releasing hormone receptor” (Merck & Co., Inc., priority 1999, dated 2002).
Blank lines part the entries; values can stand above or below the molecule they belong to.

Assays:
[1] = molecular target: dog gonadotropin-releasing hormone (GnRH) receptor (dog) (UniProt Q9MZI6); experiment: whole cell radioligand binding assay on CHO-K1 clone 1B2-1F9
[2] = molecular target: dog gonadotropin-releasing hormone (GnRH) receptor (dog) (UniProt Q9MZI6); experiment: whole cell radioligand binding assay on transfected CHO-K1 clones (seven of 71 clones)
dog GnRH receptor = molecular target: T1, dog GnRH receptor (Canis lupus familiaris, UniProt Q9MZI6); experiment: Phosphoinositide (PI) turnover assay in 1B2-1F9 cells (CHO-K1 stably expressing the dog GnRH receptor); assay type: cell-based; conditions: 1B2-1F9 CHO-K1 clone expressing dog GnRH receptor; 37° C., 1 hour; FIG. 5; read-out: EC50 of GnRH-stimulated PI turnover
T1 construct: The full-length coding cDNA of the dog GnRH receptor was cloned from dog pituitary mRNA by RT-PCR; expressed in transfected cells
T1 sequence (Q9MZI6 1-327): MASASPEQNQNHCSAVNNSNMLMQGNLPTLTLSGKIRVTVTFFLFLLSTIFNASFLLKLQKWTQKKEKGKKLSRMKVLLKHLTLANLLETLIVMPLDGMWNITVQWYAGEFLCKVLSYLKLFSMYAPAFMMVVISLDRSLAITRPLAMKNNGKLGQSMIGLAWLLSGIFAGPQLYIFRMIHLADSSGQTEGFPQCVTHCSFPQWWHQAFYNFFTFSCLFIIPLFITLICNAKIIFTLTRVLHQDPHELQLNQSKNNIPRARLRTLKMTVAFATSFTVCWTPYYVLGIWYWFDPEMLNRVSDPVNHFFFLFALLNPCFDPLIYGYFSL
Method: The coding cDNA of the dog GnRH receptor was subcloned into a polycistronic expression vector pIRES1.neo (Clontech Laboratories, Palo Alto, Calif.) to generate cells stably expressing the receptor. The plasmid DNA of pIRES1.neo-dog-GnRHR was transfected into CHO-K1 cells by lipofectin (GIBCO-BRL, Grand Island, N.Y.) following the manufacturer's instruction. Transfection was carried out overnight and the cells were split 48 hours later. G418 at 1 mg/ml was added 24 hours after splitting, and its concentration was increased to 2 mg/ml in 2-3 days. After 10 days selection by G418, colonies were picked and transferred to 24-well plates. The clones that expressed the dog GnRH receptor were screened by a whole cell binding assay using a radiolabeled peptide agonist of GnRH, 5-(^125Iodo-Tyr)-Buserelin (Woods Assay, Portland, Oreg.). […] After single cell isolation, the membrane from this clone was prepared, and the membrane binding assay was performed using ^125I-buserelin. […] The GnRH-stimulated PI turnover was also performed.
1B2-1F9 cells are functionally coupled to phospholipase C. […] The eluate was then counted in a scintillation counter.

[3] = molecular target: dog gonadotropin-releasing hormone (GnRH) receptor (dog) (UniProt Q9MZI6); experiment: cell-based or functional assay

- specific binding activity, fold above the background [1]: > 10 fold
- specific binding activity, fold above the non-specific binding [2]: 5 fold
Molecule: 5-(125Iodo-Tyr)-Buserelin (peptide)

Molecule: CC(C)C[C@H](NC(=O)CNC(=O)[C@H](Cc1ccc(O)cc1)NC(=O)[C@H](CO)NC(=O)[C@H](Cc1c[nH]c2ccccc12)NC(=O)[C@H](Cc1cnc[nH]1)NC(=O)[C@@H]1CCC(=O)N1)C(=O)N[C@@H](CCCNC(=N)N)C(=O)N1CCC[C@H]1C(=O)NCC(N)=O [GnRH, Gonadotropin-releasing hormone]
- EC50 (dog GnRH receptor): 0.3 to 0.4 nM

- EC50 of GnRH-stimulated PI turnover [3]: 0.3 to 0.4 nM
Molecule: Gonadotropin-releasing hormone (GnRH) (from UniProt P01148 24-92) (ligand)
